Data from the nanobody polyreactivity screen of Harvey et al. (2022).

Assay: yeast display, Sf9 membrane polyspecificity reagent, FACS + sequencing; frameworks hold sequencing errors
How it was run: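 Nanobodies came from a synthetic yeast display library in Saccharomyces cerevisiae BJ5465, induced with galactose for 36–48 hours and stained for 1 hour at 4 °C with 10% biotinylated, detergent-solubilized Sf9 membrane reagent. Cells were enriched on streptavidin microbeads and then FACS-sorted, with low and high (top ~1%) gates set on anti-HA fluorescence for expression and streptavidin fluorescence for reagent binding. Each polyreactivity label reflects the gate a clone came from. Genes were amplified by colony PCR, sequenced by MiSeq 2 × 250 and filtered by CDR length.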

Row | Sequence | polyreactivity (PSR sort gate)
1 | QVQLVESGGGLVQAGGSLRLSCAASGSTFFYNAMGWYRQAPGKERELVAAITYRGGRTYYADSVKGRFTISRDIAKNTVYLQMKSLNPEDTSVYYCHAYPLYRVPDRLVVSDGNYWGQGTQVTVSS | low polyreactivity
2 | QVQLVESGGGLVQAGGSLRLSCAASGSTFFYYAMGLYRQAPGKERELVADITSSGGRTYYADSVKGRFTISRDNAKNTVYLQMNSLKPEDTAVYYCAARDYRQSRYEYWGQGTQVTVSS | high polyreactivity
3 | QVQLVESGGGLVQAGGSLRLSCAASGSTFFYYAMGWYRQAPGKERELVAAITSSGGRTYYADSVKGRFTISRDNAKITVYLQMNSLKPEDTAVYYCAARDYRQSRYEYWGQGTQVTVSS | high polyreactivity
4 | QVQLVESGGGLVQAGGSLRLSCAASGSTFFYYDMGWYRQAPGKERELVAAITSGGSTYYADSVKGLFTISRDNAKNTVYLHMNSLKPEDTAVYYCNAESYFWDFYDYDHWGQGTQVTVSS | low polyreactivity
5 | QVQLVESGGGLVQAGGSLRLSCAASGSTFGAYAMGWYRQAPGKERELVAVINSDGSTNYADSVKGRFTISRDNAKHTVYLQMNSLKPEDTAVYYCAKDRTSRGGVPRMNYWGQGTQVTVSS | low polyreactivity
6 | QVQLVESGGGLVQAGGSLRLSCAASGSTFGAYTMGWYRQAPGKERELVAAISSDGSTYYADSVKGRFTISRDNAKNTVYLQMNSLKPEDTAVYYCNARYHFYGRADYSYYYLFDYWGQGTQVTVSS | low polyreactivity
7 | QVQLVESGGGLVQAGGSLRLSCAASGSTFGDYAMGWYRQAPGKERELVAAISVSGASTYYADSVKGRFTISRDNAKNTVYLQMNSLKPEDTAVYYCAATYDTIGDSWGQGTQVTVSS | low polyreactivity
8 | QVQLVESGGGLVQAGGSLRLSCAASGSTFGEYAMGWYRQAPGKERELVAVITWRDDSTYYADSVKGRFTISRDNAKNTVYLQMNSLKPEDTAVYYCNADIYQGNAGYIEVGTFGEYDYWGQGTQVTVSS | low polyreactivity
9 | QVQLVESGGGLVQAGGSLRLSCAASGSTFGFNAMGWYRPAPGKERELVAAINESGGDTYYADSVKGRFTISRDNAKNTVYLQMNSLKPEDTAVYYCAADEPSSVYGILVELEYWGQGTQVTVSS | high polyreactivity
10 | QVQLVESGGGLVQAGGSLRLSCAASGSTFGFNAMGWYRQAPGKERELVAAISRSGTRTYYADSVKGRFTISRDNAKNTVYLQMNSLKPEDTAVYYCAADSTLSRYDYWGQGTQVTVSS | high polyreactivity
11 | QVQLVESGGGLVQAGGSLRLSCAASGSTFGFNPMGWYRQAPGKERELVAAITGSGGSTYYADSVKGRFTISRDNAKNTVYLQMNSLKPEDTAVYYCARETYGDYVHYDYWGQGTQVTVSS | low polyreactivity
12 | QVQLVESGGGLVQAGGSLRLSCAASGSTFGFYAMGGYRQAPGKERELVAVISSGGGTNYADSVKGRFTISRDNAKNTVYLQMNSLKPEDTAVYYCAASRFALSGGYDYWGQGTQVTVSS | low polyreactivity
13 | QVQLVESGGGLVQAGGSLRLSCAASGSTFGFYAMGWFRQAPGKERELVAAISSSGSTYYADSVKGRFTISRDNAKNTVYVQINRLKPEDTAVYYCYADYWRYISSYDYWGQGTQVTVSS | low polyreactivity
14 | QVQLVESGGGLVQAGGSLRLSCAASGSTFGFYAMGWYRQAPGKERELVAVISSGDSTYYADSVKGRFTISRDNAKKTVYLQMNSLIPEDTAVDYCAKDALVIDGGGGYDYWGQGTQVTVSS | low polyreactivity
15 | QVQLVESGGGLVQAGGSLRLSCAASGSTFGFYAMGWYRQAPGKERELVAVISSGGGTNYADSVKGRFTISRDNAKNTVYLQMNSLKPEDTAVYYCAASRFALSGGYDYWGQGTQVTVTS | low polyreactivity
16 | QVQLVESGGGLVQAGGSLRLSCAASGSTFGGKAMGWYRQAPGKDREMVAAITGSGGRTFYADSVKGRFTISRDNAKNTVYLQMNSLKQEDTAVYSCAAYSYIYSVNYWGQVTQVTVSS | low polyreactivity

Row | Sequence | polyreactivity (PSR sort gate)
17 | QVQLVESGGGLVQAGGSLRLSCAASGSTFGGNAMGWYRQAPGKERELVAAISRSGTTTYYADSVKGRFTISRDNAKNTVYLQMNSLKPEDTAVYYCAADYVRSQYDYWGQGTQVTVSS | high polyreactivity
18 | QVQLVESGGGLVQAGGSLRLSCAASGSTFGGNAMGWYRQAPGKERELVAAISSSGGSTYYADSVKGRFTISRDNAKNTVYLQMNSLKPEDTAVYSCAALYHWTYDYWGQGTQVTVSS | low polyreactivity
19 | QVQLVESGGGLVQAGGSLRLSCAASGSTFGGNAMGWYRQAPGKERELVAAITVGGDSTYYADSVKGRFTISRDNAKNTVYLQMNSLKPEDTAVYYCAARHYWWYDYWGQGTQVTVSS | low polyreactivity
20 | QVQLVESGGGLVQAGGSLRLSCAASGSTFGGNAMGWYRQAPGKERELVAVISKRGGSTYYADSVKGRFTISRDYAKNTVYLQMNSLKPEDTAVYYCAATYSRYWSPTYDYWGQGTQVTVSS | high polyreactivity
21 | QVQLVESGGGLVQAGGSLRLSCAASGSTFGGNDMGWYRQAPGKERELVAAISSGTSTNYADSVKGRFTISRDNAKNTVYLQMNSLKPEDTAVYYCAAKWHVRGRGARYRYDYDYWGQGTQVTVSS | low polyreactivity
22 | QVQLVESGGGLVQAGGSLRLSCAASGSTFGGYAMGRYRQAPGKERELVAAISQSGTRTYYADSVKGRFTISRDNAKYTVYLQMNSLKPEDTAVYYCAARRLYYHPTLYYWGQGTQVTVSS | high polyreactivity
23 | QVQLVESGGGLVQAGGSLRLSCAASGSTFGGYAMGWYRLAPGKERELVAAISSSGTSTYYADSVKGRFTISRDNAKNTVYLQMNSLKPEDTAVYYCATDFSFFSRFDYWGQGTQVTVSS | low polyreactivity
24 | QVQLVESGGGLVQAGGSLRLSCAASGSTFGGYAMGWYRQAPGKERELVASISGGTRTNYADSVKGRFTISRDNAKNSVYLQMNSLKPEDTAVYYCAAEVGLPTWYTLPVDDYDYWGQGTQVTVSS | low polyreactivity
25 | QVQLVESGGGLVQAGGSLRLSCAASGSTFGGYAMGWYRQAPGKERELVASISGGTRTNYADSVKGRFTISRDNAKNTVYLQMNSLKPEDTAVYYCAAEVGLPTWYTLPVDDYDYWGQGTQVTVSS | low polyreactivity
26 | QVQLVESGGGLVQAGGSLRLSCAASGSTFGHNAMGWYRQAPGKERELVAAIDSGDGTTYADSVKGRFTISRDNAKNTVYFQMNSLKPEDTAVYYCAATTDRAEDDDNIGGYWGQGTQVTVSS | low polyreactivity
27 | QVQLVESGGGLVQAGGSLRLSCAASGSTFGHYTMGWYRQAPGKERELVAAITYSGGRTYYADSVKGRFTISRDNAKNTVYLQMNSLKPEDTAVYYCNAKSFRILDNFAYRVDYDYWGQGTQVTVSS | low polyreactivity
28 | QVQLVESGGGLVQAGGSLRLSCAASGSTFGINAMGWSRQAPGKERELVAAINSGTRTYYADSVKGRFTISRDNAKNNVYLQMNSLKPEDTAVYYCAARGVVGASGYYYWGQGTQVTVSS | high polyreactivity
29 | QVQLVESGGGLVQAGGSLRLSCAASGSTFGINDMGRYRQAPGKERELVASITRRGGTTYYADSVKGRFTISRDNAKNTVYLHMNSLKPEDTAVYYCNKTYRYGTPLYDYWGQGTQVTVSS | high polyreactivity
30 | QVQLVESGGGLVQAGGSLRLSCAASGSTFGIYAMGWYRPAPGKDREMVAAISSGVDTYYADSVKGRVTISRDNAKNTVDIQMNSLKPEDPAVYYCAADQFQGNSGFEYWGQGTQVTVSS | low polyreactivity
31 | QVQLVESGGGLVQAGGSLRLSCAASGSTFGIYAMGWYRQAPGKERELVAAISSGGSTNYADSVKGRFTISRDNAKNTVYLQMNSLKPEDTAVYYCAVESVYEYGGYVDSAYDYWGQGTQLTVSS | low polyreactivity
32 | QVQLVESGGGLVQAGGSLRLSCAASGSTFGIYAMGWYRQAPGKERELVAAITWRGSSTYYADSVKGRFTISRDNAKNTVYLQMNSLKPEDTAVYYCAAEDTFYEYYSWGQGTQVTVSS | high polyreactivity
